± gives the standard deviation of the averaged measurements.

The data set in a line: total protein half-life in vivo (active degradation + dilution); higher = more stable protein.
[1] abbreviates: E. coli NCM3722 delta-clpP delta-lon delta-hslV, growth: N-lim chemostat, doubling time 6 h.
[2] abbreviates: E. coli NCM3722 delta-clpP, growth: N-lim chemostat, doubling time 6 h.
The mark [3] stands for this setting: E. coli NCM3722 delta-hslV, growth: N-lim chemostat, doubling time 6 h.
Setting [4] is: E. coli NCM3722 delta-lon, growth: N-lim chemostat, doubling time 6 h.
The mark [5] stands for this setting: E. coli NCM3722 delta-smpB, growth: N-lim chemostat, doubling time 6 h.
Setting [6] is: wild type E. coli NCM3722, growth: C-lim chemostat, doubling time 3 h.
The mark [7] stands for this setting: wild type E. coli NCM3722, growth: C-lim chemostat, doubling time 6 h.
Setting [8] is: wild type E. coli NCM3722, growth: C-lim chemostat, doubling time 12 h.
Setting [9] is: wild type E. coli NCM3722, growth: N-lim chemostat, doubling time 6 h.
Where [10] appears, read: wild type E. coli NCM3722, growth: N-lim chemostat, doubling time 12 h.
[11] abbreviates: wild type E. coli NCM3722, growth: P-lim chemostat, doubling time 6 h.
Setting [12] is: wild type E. coli NCM3722, growth: P-lim chemostat, doubling time 12 h.

As to “MAIIPKNYARLESGYREKALKIYPWVCGRCSREFVYSNLRELTVHHIDHDHTNNPEDGSNWELLCLYCHDHEHSKYTEADQYGTTVIAGEDAQKDVGEAKYNPFADLKAMMNKKK [P0AAQ2]”, the “total protein half-life in vivo” value was 4.15 ± 1.2 h under setting [1]; 1.71 ± 0.098 h under setting [2]; 1.5 ± 0.031 h under setting [3]; 2.74 ± 0.48 h under setting [4]; 1.63 ± 0.71 h under setting [5]; 0.968 ± 0.29 h under setting [6]. In addition, the “total protein half-life in vivo” value turned out to be 1.73 h under setting [7]; 2.42 h under setting [8]; 1.97 h under setting [9]; 1.54 h under setting [10]; 1.18 h under setting [11]; 3.1 ± 0.97 h under setting [12].
Take “MSIPFTRWPEEFARRYREKGYWQDLPLTDILTRHAASDSIAVIDGERQLSYRELNQAADNLACSLRRQGIKPGETALVQLGNVAELYITFFALLKLGVAPVLALFSHQRSELNAYASQIEPALLIADRQHALFSGDDFLNTFVTEHSSIRVVQLLNDSGEHNLQDAINHPAEDFTATPSPADEVAYFQLSGGTTGTPKLIPRTHNDYYYSVRRSVEICQFTQQTRYLCAIPAAHNYAMSSPGSLGVFLAGGTVVLAADPSATLCFPLIEKHQVNVTALVPPAVSLWLQALIEGESRAQLASLKLLQVGGARLSATLAARIPAEIGCQLQQVFGMAEGLVNYTRLDDSAEKIIHTQGYPMCPDDEVWVADAEGNPLPQGEVGRLMTRGPYTFRGYYKSPQHNASAFDANGFYCSGDLISIDPEGYITVQGREKDQINRGGEKIAAEEIENLLLRHPAVIYAALVSMEDELMGEKSCAYLVVKEPLRAVQVRRFLREQGIAEFKLPDRVECVDSLPLTAVGKVDKKQLRQWLASRASA”: the “total protein half-life in vivo” value under setting [1] came out at 5.38 h; the “total protein half-life in vivo” value under setting [2] is 4.77 h; the “total protein half-life in vivo” value under setting [3] was found to be 5.82 h; the “total protein half-life in vivo” value under setting [6] was 2.73 ± 0.086 h; the “total protein half-life in vivo” value under setting [7] came out at 5.32 h; the “total protein half-life in vivo” value under setting [12] was found to be 10.7 h.
In the case of “MSELIVSRQQRVLLLTLNRPAARNALNNALLMQLVNELEAAATDTSISVCVITGNARFFAAGADLNEMAEKDLAATLNDTRPQLWARLQAFNKPLIAAVNGYALGAGCELALLCDVVVAGENARFGLPEITLGIMPGAGGTQRLIRSVGKSLASKMVLSGESITAQQAQQAGLVSDVFPSDLTLEYALQLASKMARHSPLALQAAKQALRQSQEVALQAGLAQERQLFTLLAATEDRHEGISAFLQKRTPDFKGR”, the “total protein half-life in vivo” value runs as follows: under setting [1], 5.63 h; under setting [6], 2.67 h; under setting [8], 6.46 h; under setting [12], 6.46 h.
As for “MNNKGSGLTPAQALDKLDALYEQSVVALRNAIGNYITSGELPDENARKQGLFVYPSLTVTWDGSTTNPPKTRAFGRFTHAGSYTTTITRPTLFRSYLNEQLTLLYQDYGAHISVQPSQHEIPYPYVIDGSELTLDRSMSAGLTRYFPTTELAQIGDETADGIYHPTEFSPLSHFDARRVDFSLARLRHYTGTPVEHFQPFVLFTNYTRYVDEFVRWGCSQILDPDSPYIALSCAGGNWITAETEAPEEAISDLAWKKHQMPAWHLITADGQGITLVNIGVGPSNAKTICDHLAVLRPDVWLMIGHCGGLRESQAIGDYVLAHAYLRDDHVLDAVLPPDIPIPSIAEVQRALYDATKLVSGRPGEEVKQRLRTGTVVTTDDRNWELRYSASALRFNLSRAVAIDMESATIAAQGYRFRVPYGTLLCVSDKPLHGEIKLPGQANRFYEGAISEHLQIGIRAIDLLRAEGDRLHSRKLRTFNEPPFR [P0AE12]”, the “total protein half-life in vivo” value reads like this: under setting [1], 6.26 ± 1.5 h; under setting [2], 5.49 ± 1 h; under setting [3], 5.31 ± 0.55 h; under setting [4], 4.76 ± 0.66 h; under setting [5], 4.37 ± 0.083 h; under setting [6], 3.24 ± 0.42 h. In addition, the “total protein half-life in vivo” value is, setting by setting: under setting [7], 6.34 ± 0.73 h; under setting [8], 10.6 ± 0.36 h; under setting [9], 4.51 ± 0.26 h; under setting [10], 8.24 ± 1.3 h; under setting [11], 6.19 ± 0.32 h.
In the case of “MKIKTRFAPSPTGYLHVGGARTALYSWLFARNHGGEFVLRIEDTDLERSTPEAIEAIMDGMNWLSLEWDEGPYYQTKRFDRYNAVIDQMLEEGTAYKCYCSKERLEALREEQMAKGEKPRYDGRCRHSHEHHADDEPCVVRFANPQEGSVVFDDQIRGPIEFSNQELDDLIIRRTDGSPTYNFCVVVDDWDMEITHVIRGEDHINNTPRQINILKALKAPVPVYAHVSMINGDDGKKLSKRHGAVSVMQYRDDGYLPEALLNYLVRLGWSHGDQEIFTREEMIKYFTLNAVSKSASAFNTDKLLWLNHHYINALPPEYVATHLQWHIEQENIDTRNGPQLADLVKLLGERCKTLKEMAQSCRYFYEDFAEFDADAAKKHLRPVARQPLEVVRDKLAAITDWTAENVHHAIQATADELEVGMGKVGMPLRVAVTGAGQSPALDVTVHAIGKTRSIERINKALDFIAERENQQ”, the “total protein half-life in vivo” value by setting is: under setting [1], 5.79 ± 0.64 h; under setting [2], 5.2 ± 0.2 h; under setting [3], 5.5 ± 0.56 h; under setting [4], 5.42 ± 0.13 h; under setting [5], 5.06 ± 0.56 h; under setting [6], 3.22 ± 0.47 h. For the same sequence, the “total protein half-life in vivo” value runs as follows: under setting [7], 6.28 ± 0.22 h; under setting [8], 12.5 ± 0.98 h; under setting [9], 5.34 ± 0.34 h; under setting [10], 9.3 ± 0.16 h; under setting [11], 6.23 ± 0.25 h; under setting [12], 12.2 ± 0.93 h.
In the case of “MFEPMELTNDAVIKVIGVGGGGGNAVEHMVRERIEGVEFFAVNTDAQALRKTAVGQTIQIGSGITKGLGAGANPEVGRNAADEDRDALRAALEGADMVFIAAGMGGGTGTGAAPVVAEVAKDLGILTVAVVTKPFNFEGKKRMAFAEQGITELSKHVDSLITIPNDKLLKVLGRGISLLDAFGAANDVLKGAVQGIAELITRPGLMNVDFADVRTVMSEMGYAMMGSGVASGEDRAEEAAEMAISSPLLEDIDLSGARGVLVNITAGFDLRLDEFETVGNTIRAFASDNATVVIGTSLDPDMNDELRVTVVATGIGMDKRPEITLVTNKQVQQPVMDRYQQHGMAPLTQEQKPVAKVVNDNAPQTAKEPDYLDIPAFLRKQAD [P0A9A6]”, the “total protein half-life in vivo” value is, setting by setting: under setting [1], 5.406 ± 0.043 h; under setting [2], 5.13 ± 0.67 h; under setting [3], 1.86 ± 0.3 h; under setting [4], 1.95 ± 0.19 h; under setting [5], 1.95 ± 0.0047 h; under setting [6], 1.25 ± 0.079 h. Also, the “total protein half-life in vivo” value reads like this: under setting [7], 1.97 ± 0.13 h; under setting [8], 2.7 ± 0.23 h; under setting [9], 1.79 ± 0.093 h; under setting [10], 2.79 ± 0.26 h; under setting [11], 2.53 ± 0.23 h; under setting [12], 4.37 ± 0.54 h.
For “MKKLVATAPRVAALVEYEDRAILANEVKIRVRFGAPKHGTEVVDFRAASPFIDEDFNGEWQMFTPRPADAPRGIEFGKFQLGNMVVGDIIECGSDVTDYAVGDSVCGYGPLSETVIINAVNNYKLRKMPQGSSWKNAVCYDPAQFAMSGVRDANVRVGDFVVVVGLGAIGQIAIQLAKRAGASVVIGVDPIAHRCDIARRHGADFCLNPIGTDVGKEIKTLTGKQGADVIIETSGYADALQSALRGLAYGGTISYVAFAKPFAEGFNLGREAHFNNAKIVFSRACSEPNPDYPRWSRKRIEETCWELLMNGYLNCEDLIDPVVTFANSPESYMQYVDQHPEQSIKMGVTF”, under setting [1], the “total protein half-life in vivo” value turned out to be 6.29 ± 0.3 h.
